How the values were obtained:
Albumin = Albumin (Homo sapiens, UniProt P02768); assay: Albumin binding constant; conditions: normalised using Lys^B29(N^ε tetradecanoyl) des(B30) human insulin as reference
[1] = Disappearance after subcutaneous injection in pigs; conditions: pigs
Text: The gel filtration experiment using the conditions prescribed in this section is the direct physico-chemical method to reveal the potential aggregate formation property of an insulin derivative. Disappearance after subcutaneous injection in pigs reflects the combination of the albumin binding and polymer formation properties of the insulin derivative, besides a variety of biological factors.

[2] = Gel filtration method 2 on Superose 6HR (HPLC, 37° C.); type: physicochemical; conditions: 140 mM NaCl, 10 mM tris, pH 7.4
Experimental: An alternative method to measure the capability of insulin derivatives of forming soluble high molecular weight aggregates was developed, suitable for HPLC equipment. The column dimensions, injection volume, and flow rate correspond to the first method, whereas the temperature is increased to 37° C. and the phosphate buffer is changed to trishydroxymethylaminomethan hydrochloride and additional sodium chloride. The aggregated state of insulin is defined to elute before the gel filtration standard aldolase like in the first method.

[3] = Gel filtration on Sephacryl S-300 HR (aggregate formation, method 1); type: physicochemical; design: key to KAV: KAV=(VE-V0)/(VT-V0); fraction of available elution volume; conditions: Sephacryl S-300 HR, pH 7.4 eluent; Zinc free

## Human insulin [reference compound]
Albumin
  Albumin binding Kass: 0 (mol/l)^−1
[1]; subcutaneous injection, normalised using Lys^B29(N^ε tetradecanoyl) des(B30) human insulin as reference
  Disappearance T50%: (2) h
[1]; subcutaneous, normalised to Lys^B29(N^ε tetradecanoyl-) des(B30) human insulin (T50% = 14.3 h)
  Disappearance in pigs, T50%: 2 h
[2]; 2 Zn2+/6 ins
  KAV (Superose 6HR) 2Zn^2+/6 ins: 0.64
[2]; 3 Zn2+/6 ins
  KAV (Superose 6HR) 3Zn^2+/6 ins: 0.64
[3]
  KAV: 0.72

Reference: patent US6451762B1 (Novo Nordisk A/S, priority 1997, dated 2002)
